In US20240287138A1 (Merck Sharp & Dohme, published 2024):
Numbered stars: 1 amine (or outer) side, 2 acyl side, 3 side chain; on linkers, the order of the positions; unused ones are H or OH. Bridge positions count the residues as written; N and C are the ends. Square brackets hold non-standard residues; d marks the D form. Primed or numbered codes have the meaning given here. NEtCNG = 2-(2-Cyanoethylamino)acetic acid ((2-cyanoethyl)glycine), N#CCCN(CC(=O)[*:2])[*:1]; bhcLeu = (1R,3S)-3-aminocyclopentane-1-carboxylic acid, O=C([C@@H]1CC[C@H](N[*:1])C1)[*:2]; AhpF3 = (S)-2-Amino-7,7,7-trifluoroheptanoic acid, O=C([C@H](CCCCC(F)(F)F)N[*:1])[*:2]; Trp(βS-Me,7-OMe) = COc1cccc2c([C@H](C)[C@H](N)C(=O)O)c[nH]c12; Trp(βS-Me) = C[C@@H](c1c[nH]c2ccccc12)[C@H](N)C(=O)O; Trp(7-Cl) = N[C@@H](Cc1c[nH]c2c(Cl)cccc12)C(=O)O; Phe(3-COOH) = N[C@@H](Cc1cccc(C(=O)O)c1)C(=O)O; Phe(4-CONH2) = NC(=O)c1ccc(C[C@H](N)C(=O)O)cc1; Phe(4-COOH) = N[C@@H](Cc1ccc(C(=O)O)cc1)C(=O)O; Trp(7-aza) = N[C@@H](Cc1c[nH]c2ncccc12)C(=O)O; Phe(4-CH2NH2) = NCc1ccc(C[C@H](N)C(=O)O)cc1; 3Pal(6-OMe) = COc1ccc(C[C@H](N)C(=O)O)cn1; Pip(5R-OH) = O=C(O)[C@@H]1CC[C@@H](O)CN1; αMeW = C[C@](N)(Cc1c[nH]c2ccccc12)C(=O)O; Ala(2-furyl) = N[C@@H](Cc1ccco1)C(=O)O; 2Nal = N[C@@H](Cc1ccc2ccccc2c1)C(=O)O; Dap(CONH2) = NC(=O)NC[C@H](N)C(=O)O; Val(3-OH) = CC(C)(O)[C@H](N)C(=O)O; Pip(4-aza) = O=C(O)[C@@H]1CNCCN1; 3Pal = N[C@@H](Cc1cccnc1)C(=O)O; 4Pal = N[C@@H](Cc1ccncc1)C(=O)O; NMeE = CN[C@@H](CCC(=O)O)C(=O)O; Morpip6diMe = not defined here; dbhcLeu = not defined here; 2SBrBu = not defined here; 2SBrPr = not defined here; Pip = O=C(O)[C@@H]1CCCCN1; αMeS = C[C@](N)(CO)C(=O)O; Nle = CCCC[C@H](N)C(=O)O; Ahp′ = not defined here; Spip = not defined here; Dap = NC[C@H](N)C(=O)O; Sar = CNCC(=O)O

T1: TNFR1 on THP-1 Lucia NF-κB cells (UniProt P19438 30-455, limits assumed)
T1 sequence (looked up): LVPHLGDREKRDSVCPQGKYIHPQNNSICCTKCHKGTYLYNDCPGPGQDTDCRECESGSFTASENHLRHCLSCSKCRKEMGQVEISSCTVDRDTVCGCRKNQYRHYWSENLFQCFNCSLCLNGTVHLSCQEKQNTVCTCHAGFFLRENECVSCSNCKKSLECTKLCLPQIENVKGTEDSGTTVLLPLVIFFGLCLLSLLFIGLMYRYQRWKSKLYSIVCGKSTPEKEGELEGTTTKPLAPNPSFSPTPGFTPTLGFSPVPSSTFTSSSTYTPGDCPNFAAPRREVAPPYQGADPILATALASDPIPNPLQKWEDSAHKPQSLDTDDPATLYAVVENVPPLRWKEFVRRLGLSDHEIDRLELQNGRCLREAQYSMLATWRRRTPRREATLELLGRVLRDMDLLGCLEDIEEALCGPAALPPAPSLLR


Molecular target: T1, TNFR1 on THP-1 Lucia NF-κB cells
Assay: cell-based or functional assay

THP-1 IC50 [nM]	Binder
0.9	cyclo([bhcLeu][Nle][4Pal][Pip(4-aza)]W[NMeE][Dap(CONH2)][4Pal][Trp(7-Cl)][αMeS][Phe(4-COOH)]Y[Sar][Trp(βS-Me,7-OMe)]) (SMILES CCCC[C@@H]1NC(=O)[C@@H]2CC[C@@H](C2)NC(=O)[C@H]([C@@H](C)c2c[nH]c3c(OC)cccc23)NC(=O)CN(C)C(=O)[C@H](Cc2ccc(O)cc2)NC(=O)[C@H](Cc2ccc(C(=O)O)cc2)NC(=O)[C@](C)(CO)NC(=O)[C@H](Cc2c[nH]c3c(Cl)cccc23)NC(=O)[C@H](Cc2ccncc2)NC(=O)[C@H](CNC(N)=O)NC(=O)[C@H](CCC(=O)O)N(C)C(=O)[C@H](Cc2c[nH]c3ccccc23)NC(=O)[C@@H]2CNCCN2C(=O)[C@H](Cc2ccncc2)NC1=O) [SEQ ID NO. 225]
20.8	{CH2CO}-[Ahp′][4Pal]S[Trp(βS-Me)][dP]N[Phe(4-COOH)][2Nal][αMeS][Phe(4-COOH)]H[Sar][αMeW]C-NH2 (thioether N-14; reading uncertain; also: printed as cyclo(ClAc-Ahp-4Pal-S-SbMeW-dP-N-Phe4COOH-2Nal-aMeS-Phe4COOH-H-Sar-aMeW-C)-NH2) [SEQ ID NO. 237]
9.4	{CH2CO}-[LysN3][4Pal][Dap][Trp(βS-Me)][dP]N[4Pal][Trp(7-Cl)][αMeS][Phe(4-COOH)][Phe(4-CH2NH2)][Sar][αMeW]C-NH2 (thioether N-14) [SEQ ID NO. 245]
1.4	cyclo([bhcLeu][Nle][3Pal(6-OMe)][Pip(4-aza)]W[NMeE]N[4Pal][Trp(7-Cl)][αMeS][Phe(4-COOH)]Y[Sar][Trp(βS-Me,7-OMe)]) (SMILES CCCC[C@@H]1NC(=O)[C@@H]2CC[C@@H](C2)NC(=O)[C@H]([C@@H](C)c2c[nH]c3c(OC)cccc23)NC(=O)CN(C)C(=O)[C@H](Cc2ccc(O)cc2)NC(=O)[C@H](Cc2ccc(C(=O)O)cc2)NC(=O)[C@](C)(CO)NC(=O)[C@H](Cc2c[nH]c3c(Cl)cccc23)NC(=O)[C@H](Cc2ccncc2)NC(=O)[C@H](CC(N)=O)NC(=O)[C@H](CCC(=O)O)N(C)C(=O)[C@H](Cc2c[nH]c3ccccc23)NC(=O)[C@@H]2CNCCN2C(=O)[C@H](Cc2ccc(OC)nc2)NC1=O) [SEQ ID NO. 241]
4.2	{CH2CO}-[Nle][4Pal][Pip(4-aza)]W[dP]N[Ala(2-furyl)][Trp(7-Cl)][αMeS][Phe(4-COOH)]Y[Sar][Trp(βS-Me,7-OMe)]C-NH2 (thioether N-14; SMILES CCCC[C@@H]1NC(=O)CSC[C@@H](C(N)=O)NC(=O)[C@H]([C@@H](C)c2c[nH]c3c(OC)cccc23)NC(=O)CN(C)C(=O)[C@H](Cc2ccc(O)cc2)NC(=O)[C@H](Cc2ccc(C(=O)O)cc2)NC(=O)[C@](C)(CO)NC(=O)[C@H](Cc2c[nH]c3c(Cl)cccc23)NC(=O)[C@H](Cc2ccco2)NC(=O)[C@H](CC(N)=O)NC(=O)[C@H]2CCCN2C(=O)[C@H](Cc2c[nH]c3ccccc23)NC(=O)[C@@H]2CNCCN2C(=O)[C@H](Cc2ccncc2)NC1=O) [SEQ ID NO. 236]
0.7	cyclo([bhcLeu][LysMe2][4Pal][Pip(5R-OH)]W[NMeE]N[4Pal][Trp(7-Cl)][αMeS][Phe(4-CONH2)]Y[Sar][Trp(βS-Me,7-OMe)]) [SEQ ID NO. 238]
10	{CH2CO}-[Ahp′]Y[AlaPiperaz][Trp(βS-Me)][dP]N[4Pal][Trp(7-Cl)][αMeS][Phe(4-COOH)][3Pal][Sar][αMeW]C-NH2 (thioether N-14; reading uncertain; also: printed as cyclo(ClAc-Ahp-Y-AlaPiperaz-SbMeW-dP-N-4Pal-Trp7Cl-aMeS-Phe4COOH-3Pal-Sar-aMeW-C)-NH2) [SEQ ID NO. 226]
6.5	{CH2CO}-[Nle][4Pal][Pip(4-aza)][Trp(7-aza)][NMeE]N[4Pal][Trp(7-Cl)][αMeS][Phe(4-COOH)]Y[Sar][Trp(βS-Me,7-OMe)]CGEE-NH2 (thioether N-14; SMILES CCCC[C@@H]1NC(=O)CSC[C@@H](C(=O)NCC(=O)N[C@@H](CCC(=O)O)C(=O)N[C@@H](CCC(=O)O)C(N)=O)NC(=O)[C@H]([C@@H](C)c2c[nH]c3c(OC)cccc23)NC(=O)CN(C)C(=O)[C@H](Cc2ccc(O)cc2)NC(=O)[C@H](Cc2ccc(C(=O)O)cc2)NC(=O)[C@](C)(CO)NC(=O)[C@H](Cc2c[nH]c3c(Cl)cccc23)NC(=O)[C@H](Cc2ccncc2)NC(=O)[C@H](CC(N)=O)NC(=O)[C@H](CCC(=O)O)N(C)C(=O)[C@H](Cc2c[nH]c3ncccc23)NC(=O)[C@@H]2CNCCN2C(=O)[C@H](Cc2ccncc2)NC1=O) [SEQ ID NO. 255]
3.7	cyclo([dbhcLeu][Nle][4Pal][Morpip6diMe]W[NMeE]N[4Pal][Trp(7-Cl)][αMeS][Phe(4-CONH2)]Y[Sar][Trp(βS-Me,7-OMe)]) (reading uncertain; also: printed as cyclo(dbhcLeu-Nle-4Pal-Morpip6diMe-W-NMeE-N-4Pal-Trp7Cl-aMeS-Phe4CONH2-Y-Sar-SbMeW7OMe)) [SEQ ID NO. 214]
1	cyclo([bhcLeu][AhpF3][4Pal][Pip(4-aza)]W[NMeE]N[4Pal][Trp(7-Cl)][αMeS][Phe(4-COOH)]Y[Sar][Trp(βS-Me,7-OMe)]) (SMILES COc1cccc2c([C@H](C)[C@@H]3NC(=O)CN(C)C(=O)[C@H](Cc4ccc(O)cc4)NC(=O)[C@H](Cc4ccc(C(=O)O)cc4)NC(=O)[C@](C)(CO)NC(=O)[C@H](Cc4c[nH]c5c(Cl)cccc45)NC(=O)[C@H](Cc4ccncc4)NC(=O)[C@H](CC(N)=O)NC(=O)[C@H](CCC(=O)O)N(C)C(=O)[C@H](Cc4c[nH]c5ccccc45)NC(=O)[C@@H]4CNCCN4C(=O)[C@H](Cc4ccncc4)NC(=O)[C@H](CCCCC(F)(F)F)NC(=O)[C@@H]4CC[C@@H](C4)NC3=O)c[nH]c12) [SEQ ID NO. 213]
4.3	2SBrBu-[Nle][4Pal][Spip]W[NMeE]N[4Pal][Trp(7-Cl)][αMeS][Phe(4-CONH2)]Y[Sar][Trp(βS-Me,7-OMe)]C-NH2 (thioether N-14; reading uncertain; also: printed as cyclo(2SBrBu-Nle-4Pal-Spip-W-NMeE-N-4Pal-Trp7Cl-aMeS-Phe4CONH2-Y-Sar-SbMeW7OMe-C)-NH2) [SEQ ID NO. 246]
4.4	{CH2CO}-[Nle]H[Val(3-OH)][Trp(7-aza)][NMeE]N[4Pal][Trp(7-Cl)][αMeS][Phe(4-COOH)]Y[Sar][Trp(βS-Me,7-OMe)]C-NH2 (thioether N-14; SMILES CCCC[C@@H]1NC(=O)CSC[C@@H](C(N)=O)NC(=O)[C@H]([C@@H](C)c2c[nH]c3c(OC)cccc23)NC(=O)CN(C)C(=O)[C@H](Cc2ccc(O)cc2)NC(=O)[C@H](Cc2ccc(C(=O)O)cc2)NC(=O)[C@](C)(CO)NC(=O)[C@H](Cc2c[nH]c3c(Cl)cccc23)NC(=O)[C@H](Cc2ccncc2)NC(=O)[C@H](CC(N)=O)NC(=O)[C@H](CCC(=O)O)N(C)C(=O)[C@H](Cc2c[nH]c3ncccc23)NC(=O)[C@H](C(C)(C)O)NC(=O)[C@H](Cc2c[nH]cn2)NC1=O) [SEQ ID NO. 217]
4	{CH2CO}-[Nle][4Pal][Pip][Trp(7-aza)][NEtCNG]N[4Pal][Trp(7-Cl)][αMeS][Phe(4-COOH)]Y[Sar][Trp(βS-Me,7-OMe)]C-NH2 (thioether N-14; SMILES CCCC[C@@H]1NC(=O)CSC[C@@H](C(N)=O)NC(=O)[C@H]([C@@H](C)c2c[nH]c3c(OC)cccc23)NC(=O)CN(C)C(=O)[C@H](Cc2ccc(O)cc2)NC(=O)[C@H](Cc2ccc(C(=O)O)cc2)NC(=O)[C@](C)(CO)NC(=O)[C@H](Cc2c[nH]c3c(Cl)cccc23)NC(=O)[C@H](Cc2ccncc2)NC(=O)[C@H](CC(N)=O)NC(=O)CN(CCC#N)C(=O)[C@H](Cc2c[nH]c3ncccc23)NC(=O)[C@@H]2CCCCN2C(=O)[C@H](Cc2ccncc2)NC1=O) [SEQ ID NO. 228]
4.4	{CH2CO}-[Nle][4Pal][Pip(4-aza)]W[NMeE]N[4Pal][Trp(7-Cl)][αMeS][Phe(3-COOH)]Y[Sar][Trp(βS-Me,7-OMe)]C-NH2 (thioether N-14; SMILES CCCC[C@@H]1NC(=O)CSC[C@@H](C(N)=O)NC(=O)[C@H]([C@@H](C)c2c[nH]c3c(OC)cccc23)NC(=O)CN(C)C(=O)[C@H](Cc2ccc(O)cc2)NC(=O)[C@H](Cc2cccc(C(=O)O)c2)NC(=O)[C@](C)(CO)NC(=O)[C@H](Cc2c[nH]c3c(Cl)cccc23)NC(=O)[C@H](Cc2ccncc2)NC(=O)[C@H](CC(N)=O)NC(=O)[C@H](CCC(=O)O)N(C)C(=O)[C@H](Cc2c[nH]c3ccccc23)NC(=O)[C@@H]2CNCCN2C(=O)[C@H](Cc2ccncc2)NC1=O) [SEQ ID NO. 249]
2.4	2SBrPr-[Nle][Phe(4-CH2NH2)]S[Trp(7-aza)][NMeE]N[4Pal][Trp(7-Cl)][αMeS][Phe(4-CONH2)]Y[Sar][Trp(βS-Me,7-OMe)]C-NH2 (thioether N-14; reading uncertain; also: printed as cyclo(2SBrPr-Nle-Phe4CH2NH2-S-Trp7az-NMeE-N-4Pal-Trp7Cl-aMeS-Phe4CONH2-Y-Sar-SbMeW7OMe-C)-NH2) [SEQ ID NO. 250]
